# From patent US20190382493A1 (CYTOMX THERAPEUTICS, published 2019)
# Changes are numbered by the printed parent chain.
# B1: PDL1 A05 Fab-phage (Fab, V domains shown)
# VH: EVQLLESGGGLVQPGGSLRLSCAASGFTFSSYAMSWVRQAPGKGLEWVSSIWKQGIVTVYDSVKGRFTISRDNSKNTLYLQMNSLRAEDTAVYYCAKSSAGFDYWGQGTLVTV
# VL: DIQMTQSPSSLSASVGDRVTITCRASQSISSYLNWYQQKPGKAPKLLIYYASTLQSGVPSRFSGSGSGTDFTLTISSLQPEDFATYYCQQDNGYPSTFGQGTKVEIKR
# B2: PDL1 E11 Fab-phage (Fab, V domains shown)
# VH: EVQLLESGGGLVQPGGSLRLSCAASGFTFSSYAMSWVRQAPGKGLEWVSDIWKQGFATADSVKGRFTISRDNSKNTLYLQMNSLRAEDTAVYYCAKSSAGFDYWGQGTLVTVSS
# VL: B1 VL
# B3: PDL1 G12 Fab-phage (Fab, V domains shown)
# VH: EVQLLESGGGLVQPGGSLRLSCAASGFTFSSYAMSWVRQAPGKGLEWVSSIWYQGLVTVYDSVKGRFTISRDNSKNTLYLQMNSLRAEDTAVYYCAKSSAGFDYWGQGTLVTVSS
# VL: B1 VL
# B4: PDL1 G10 Fab-phage (Fab, V domains shown)
# VH: B3 VH with W52G, Y53R, V57I
# VL: B1 VL
# B5: PDL1 D08 Fab-phage (Fab, V domains shown)
# VH: B3 VH with Y53R, V57A, V59A
# VL: B1 VL
# B6: PDL1 H06 Fab-phage (Fab, V domains shown)
# VH: B3 VH with Y53R, V57A, V59A
# VL: B1 VL
# B7: PDL1 C05 Fab-phage (Fab, V domains shown)
# VH: B3 VH with Y53R, Q54N, L56I
# VL: B1 VL
# B8: PDL1 G09 Fab-phage (Fab, V domains shown)
# VH: B3 VH with S50E, W52V, Y53A, Q54T, L56I, V57L, V59S
# VL: B1 VL
# B9: PDL1 C10 Fab-phage (Fab, V domains shown)
# VH: B3 VH with S50D, Y53K, L56M
# VL: B1 VL
# B10: PDL1 D01 Fab-phage (Fab, V domains shown)
# VH: B3 VH with Y53K, L56I
# VL: B1 VL
# B11: masking moiety PL13 (peptide)
# peptide: LCDLFKLREFPYCMG
# B12: masking moiety PL08 (peptide)
# peptide: DGPRCFVSGECSPIG
# B13: masking moiety PL10 (peptide)
# peptide: PCHPHPYDARPYCNV
# B14: masking moiety PL25 (peptide)
# peptide: PCHPHPYDARAYCNV
# notes: differs from PL10 by one alanine
# B15: masking moiety PL17 (peptide)
# peptide: PCHPAPYDARPYCNV
# notes: as for B14
# B16: masking moiety PL18 (peptide)
# peptide: PCHPHAYDARPYCNV
# notes: as for B14
# B17: masking moiety PL22 (peptide)
# peptide: PCHPHPYDARPACNV
# notes: as for B14
# B18: masking moiety PL19 (peptide)
# peptide: PCHPHPADARPYCNV
# notes: as for B14
# B19: masking moiety PL21 (peptide)
# peptide: PCHPHPYDAAPYCNV
# notes: as for B14
# B20: masking moiety PL16 (peptide)
# peptide: ACHPHPYDARPYCNV
# notes: as for B14
# B21: masking moiety PL23 (peptide)
# peptide: PCHPHPYDARPYCAV
# notes: as for B14
# B22: masking moiety PL20 (peptide)
# peptide: PCHPHPYAARPYCNV
# notes: as for B14
# B23: masking moiety PL24 (peptide)
# peptide: PCHAHPYDARPYCNV
# notes: as for B14
# B24: masking moiety PL04 (peptide)
# peptide: IACRHFMEQLPFCHH
# B25: masking moiety PL01 (peptide)
# peptide: YCEVSELFVLPWCMG
# B26: masking moiety PL15 (peptide)
# peptide: IFCHMGVVVPQCANY
# B27: masking moiety PL09 (peptide)
# peptide: LCYKLDYDDRSYCHI
# B28: masking moiety PL11 (peptide)
# peptide: PCYWHPFFAYRYCNT
# B29: masking moiety PL07 (peptide)
# peptide: GIALCPSHFCQLPQT
# B30: masking moiety PL05 (peptide)
# peptide: FGPRCGEASTCVPYE
# B31: masking moiety PL12 (peptide)
# peptide: VCYYMDWLGRNWCSS
# B32: masking moiety PL06 (peptide)
# peptide: ILYCDSWGAGCLTRP
# B33: masking moiety PL14 (peptide)
# peptide: YLPCHFVPIGACNNK
# B34: masking moiety PL02 (peptide)
# peptide: SCLMHPHYAHDYCYV
# B35: masking moiety PL03 (peptide)
# peptide: LCEVLMLLQHPWCMG
# Molecular target: T1, human B7-1-Fc (R&D Systems) (human, UniProt P33681 35-242)
# T1 construct: not shown: Fc part of the bought fusion protein; not described
# T1 sequence (looked up): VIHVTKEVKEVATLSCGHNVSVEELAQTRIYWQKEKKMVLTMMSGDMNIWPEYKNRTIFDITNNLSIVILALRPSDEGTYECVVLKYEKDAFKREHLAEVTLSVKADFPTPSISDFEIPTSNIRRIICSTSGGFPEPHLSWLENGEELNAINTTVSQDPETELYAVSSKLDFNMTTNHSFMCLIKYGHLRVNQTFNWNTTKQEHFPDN
# Assay: Fab-phage ELISA, antigen adsorbed
# Excerpt: Forty seven (47) individual isolates were chosen from the final pool. […] Briefly, the antigens were adsorbed to the wells of a 96-well ELISA plate, each ligand on a separate plate. Phage were applied to correlative wells on each plate and allowed to bind. Bound phage were visualized with an anti-M13-HRP conjugate and developed with the chromogenic substrate TMB. Based on the results of the ELISA and DNA sequence, 6 unique clones with matured heavy variable CDR3 domains and 10 heavy variable CDR2 domains were chosen for further study. […] Table 4 lists the heavy variable domains encoded by the clones and SEQ ID NOs for the nucleic acid sequences and amino acid sequences of their respective heavy chains.
row,Binder,binding result
1,B1,no binding
2,B2,no binding
3,B3,no binding
4,B4,no binding
5,B5,no binding
6,B6,no binding
7,B7,no binding
8,B8,no binding
9,B9,no binding
10,B10,no binding

# Molecular target: Fab of anti-PDL1 antibody C5H9v2
# Assay: binding of Fab to peptide-displaying clones
row,Binder,binding result
1,B11,binds
2,B12,binds
3,B13,binds
4,B14,binds
5,B15,binds
6,B16,binds
7,B17,binds
8,B18,binds
9,B19,binds
10,B20,binds
11,B21,binds
12,B22,binds
13,B23,binds
14,B24,binds
15,B25,binds
16,B26,binds
17,B27,binds
18,B28,binds
19,B29,binds
20,B30,binds
21,B31,binds
22,B32,binds
23,B33,binds
24,B34,binds
25,B35,binds

# Molecular target: T2, anti-PDL1 antibody C5H9v2
# T2 construct: IgG; also called anti-PDL1 parental antibody C5H9v2
# Assay: binding of antibody to peptide-displaying clones
row,Binder,binding result
1,B11,binds
2,B12,binds
3,B13,binds
4,B14,binds
5,B15,binds
6,B16,binds
7,B17,binds
8,B18,binds
9,B19,binds
10,B20,binds
11,B21,binds
12,B22,binds
13,B23,binds
14,B24,binds
15,B25,binds
16,B26,binds
17,B27,binds
18,B28,binds
19,B29,binds
20,B30,binds
21,B31,binds
22,B32,binds
23,B33,binds
24,B34,binds
25,B35,binds
